Test results published in patent publication US20140178293A1, “METHODS FOR IMAGING BONE PRECURSOR CELLS USING DUAL-LABELED IMAGING AGENTS TO DETECT MMP-9 POSITIVE CELLS” (BAYLOR COLLEGE OF MEDICINE, priority 2011, published 2014).
No end group written: not given here.

How the values were obtained:
[1] = in vivo; Kuhnast et al., 2004; Sprague et al., 2006; cited from earlier work
[2] = system: MMP-2/9; settings: Koivunen et al., 1999; cited from earlier work
[3] = characterization of fluorescent properties; type: physicochemical
Experimental: Fluorescence intensity of the fluorophores was determined using the Fluorolog Tau-3 Spectrofluorometer (Horiba Jobin Yvon, Edison, N.J.) with excitation from a xenon arc lamp and absorbance was recorded using the DU-800 Spectrophotometer (Beckman Coulter, Brea Calif.). Fluorescence excitation and emission spectra were obtained at wavelengths of 785 and 830 nm respectively, with an integration time of 0.3 seconds for 1 μM solutions of IRDye 800CW, M2 and ^68Ga-M2 (n=4). Fluorescence measurements for IRDye 800CW and M2 were performed in aqueous solution under ambient conditions, whereas ^68Ga-M2 was prepared as previously described in NaOAc (pH 4) to provide an accurate representation of the ^68Ga-labeling scheme. Extinction coefficients were determined from the slope of absorbance at 785 nm as a function of the concentration of serial dilutions of each agent. Fluorescence quantum yield was determined by the comparative method of Williams et al. (Williams et al., 1983) using the quantum yield of ICGO (Φ=0.016) at 785/830 nm as a standard.

[4] = type: physicochemical
Experimental: The lipophilicity of ^68Ga-M2 was assessed by determination of the water-octanol partition coefficient. 1-Octanol (1 mL) was added to a solution of approximately 25 μCi of ^68Ga-M2 in water (1 mL) and the layers were vigorously mixed for 5 min at room temperature. The tubes were centrifuged at 14,000 rpm for 2-3 min. Three samples of 100 μL of each layer were taken in pre-weighed vials, re-weighed, and counted in a […] (Wizard-2, Perkin Elmer). The partition coefficient was determined by calculating the ratio of counts per minute (cpm) in weight (g) of octanol/cpm in weight (g) of water and expressed as log P. At least three independent experiments were performed in triplicate to give the log P as the mean value±standard deviation (SD).

[5] = target: T1, MMP-9 (Mus musculus, UniProt P41245); set-up: injected intramuscularly into each hind limb quadriceps muscle of nonobese diabetic/severely compromised immunodeficient (NOD/SCID) mice; from tissue; host or cells: hind limb muscle of living NOD/SCID mice injected with AdBMP2- or Adempty-transduced human fibroblasts; settings: in vivo, iv
T1 sequence (P41245 108-730): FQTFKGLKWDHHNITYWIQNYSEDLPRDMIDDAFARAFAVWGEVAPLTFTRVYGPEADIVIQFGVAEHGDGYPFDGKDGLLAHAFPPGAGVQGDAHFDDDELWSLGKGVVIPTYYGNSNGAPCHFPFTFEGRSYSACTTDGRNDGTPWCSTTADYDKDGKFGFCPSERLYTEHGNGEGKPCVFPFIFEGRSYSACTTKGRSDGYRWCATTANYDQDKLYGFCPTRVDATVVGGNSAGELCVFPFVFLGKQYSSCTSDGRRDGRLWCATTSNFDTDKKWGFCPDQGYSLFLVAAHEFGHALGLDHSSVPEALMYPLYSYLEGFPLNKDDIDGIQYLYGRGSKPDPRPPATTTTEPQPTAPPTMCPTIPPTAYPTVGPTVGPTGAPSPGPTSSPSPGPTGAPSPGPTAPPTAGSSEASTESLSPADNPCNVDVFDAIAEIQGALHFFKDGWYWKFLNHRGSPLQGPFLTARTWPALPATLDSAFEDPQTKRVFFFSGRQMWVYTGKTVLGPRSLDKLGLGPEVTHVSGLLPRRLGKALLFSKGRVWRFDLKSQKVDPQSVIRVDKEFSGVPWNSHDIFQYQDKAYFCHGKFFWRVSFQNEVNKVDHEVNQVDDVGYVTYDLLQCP
Experimental: (§1) A murine model of BMP-2 induced HO was used as previously described (Rodenberg et al., 2010). […] Control transduced cells were injected into the contralateral limb.
The anesthetized mice were injected intravenously with ^68Ga-M2 (200 μCi, 6 nmol) and μPET/CT images were acquired 1 h post-injection. To visualize the formation of ectopic bone, CT imaging was performed on days 4 and 11 post-implantation

[6] = in vitro; type: in vitro ADME; settings: mouse, serum
Experimental: (§2) The chemical, radiochemical and optical stability of radioactive and non-radioactive M2 were examined using a series of in vitro stability studies. M2 was incubated in PBS and water at room temperature and 4° C. for 14 days, followed by HPLC analysis of peptide and fluorescent stability. To assess radiochemical stability, ^68Ga-M2 was added to a solution of PBS or DTPA (500-fold excess), kept at room temperature for 1, 2 and 3 h, and analyzed by radio-HPLC. To evaluate serum stability, 150 μl of ^68Ga-M2 was added to 50% mouse serum and incubated at 37° C. An 80 μl aliquot was taken at each of the above-mentioned time points and added to 160 μl ice-cold acetonitrile. The samples were centrifuged at 14,000 rpm for 5 min and the supernatant was collected, filtered and analyzed by radio-HPLC.

[7] = radiochemical stability of ^68Ga-M2 in PBS or DTPA challenge (radio-HPLC); type: physicochemical; settings: room temperature, 3 h incubation
Experimental: as §2

[8] = target: T1, MMP-9; assay: NIRF imaging of ^68Ga-M2 in murine model of BMP-2 induced HO; type: in vivo; set-up: injected intramuscularly into each hind limb quadriceps muscle of nonobese diabetic/severely compromised immunodeficient (NOD/SCID) mice; from tissue; host or cells: hind limb muscle of living NOD/SCID mice injected with AdBMP2- or Adempty-transduced human fibroblasts; settings: day 4 after implantation, 18 hr after i.v. administration
Experimental: as §1
Based on the findings from the ex vivo analysis, mice were imaged on day 4 post-implantation with NIRF imaging to assess localization and in vivo fluorescence of M2 following ^68Ga-labeling. […] NIR fluorescence images were acquired 18 hr after intravenous administration of ^68Ga-M2 using a custom-built fluorescence imaging systems previously described Houston et al., 2005). Briefly, a field of view was illuminated with 785 nm of light from a laser diode, outfitted with a convex lens and diffuser to create a uniform excitation field. The fluorescence was collected through holographic and interference filters placed before a Nikon camera lens. The images were finally captured by an electron-multiplying charge-coupled device camera (PhotonMax 512; Princeton Instruments, Princeton, N.J.) with 200 to 400 milliseconds of integration time. For acquisition of white-light images, the optical filters were removed, and a low-power lamp illuminated the subject. Image acquisition was accomplished by V++ software (Auckland, New Zealand).

[9] = 1 μM solutions, IRDye 800CW and M2 aqueous, ^68Ga-M2 in NaOAc pH 4

Row | Compound | susceptibility to non-specific degradation [1] | inhibitory activity against MMP-2/9 [2] | Emission maximum [3, 9] [nm] | Excitation wavelength [3, 9] [nm] | Quantum yield ([3]; 785/830 nm, relative to ICG (Φ=0.016)) | Extinction coefficient ([3]; absorbance at 785 nm, serial dilutions, mean ± SD (n=4)) | absorbance maximum ([3]; optical spectrum) [nm] | logP [4] | clearance from circulation [5] | remaining at 3 h [6] [%] | radiochemical purity ([7]; DTPA (500-fold excess)) [%] | radiochemical purity ([7]; PBS) [%] | localization of agent by NIR fluorescence [8]
1 | c(CTTHWGFTLC) (also: cyclic, c(...), ring type and places not given here) | highly susceptible to non-specific degradation | potent inhibitory activity |  |  |  |  |  |  |  |  |  |  | 
2 | CC(C)C[C@@H]1NC(=O)[C@H]([C@@H](C)O)NC(=O)[C@H](Cc2ccccc2)NC(=O)CNC(=O)[C@H](Cc2c[nH]c3ccccc23)NC(=O)[C@H](Cc2c[nH]cn2)NC(=O)[C@H](C)NC(=O)[C@@H](NC(=O)[C@H](CCCCNC(=O)CCCCC[N+]2=C(C=CC3=C(Oc4ccc(S(=O)(=O)O)cc4)C(=CC=C4N(CCCCS(=O)(=O)O)c5ccc(S(=O)(=O)O)cc5C4(C)C)CCC3)C(C)(C)c3cc(S(=O)(=O)[O-])ccc32)NC(=O)CN2CCN(CC(=O)O)CCN(CC(=O)O)CCN(CC(=O)O)CC2)CCCCNC(=O)C[C@@H](C(=O)O)NC1=O (single isomer, unassigned) [^68Ga-M2, metal not drawn] |  |  | 830 | 785 | 0.031 | 108,069±7,918 M^−1cm^−1 | 785 | -2.09 ± 0.02 | rapidly cleared from circulation via the kidneys | > 95 | > 95 | > 95 | observed in the tissue region with BMP-2 producing cells
